Read-outs that look alike come from different tables or passages of the source.
Assays:
Assay in all cases: cell-based or functional assay
[1] = target: receptor of ecotropic murine leukaemia virus Rec1 (murine) (UniProt Q09143)
[2] = target: receptor of ecotropic murine leukaemia virus Rec1 (murine) (UniProt Q09143); remark: listed apart in the source
[3] = target: receptor of ecotropic murine leukaemia virus Rec1 (murine) (UniProt Q09143); remark: listed apart in the source

Sequence of receptor of ecotropic murine leukaemia virus Rec1 (murine) (Q09143 whole entry): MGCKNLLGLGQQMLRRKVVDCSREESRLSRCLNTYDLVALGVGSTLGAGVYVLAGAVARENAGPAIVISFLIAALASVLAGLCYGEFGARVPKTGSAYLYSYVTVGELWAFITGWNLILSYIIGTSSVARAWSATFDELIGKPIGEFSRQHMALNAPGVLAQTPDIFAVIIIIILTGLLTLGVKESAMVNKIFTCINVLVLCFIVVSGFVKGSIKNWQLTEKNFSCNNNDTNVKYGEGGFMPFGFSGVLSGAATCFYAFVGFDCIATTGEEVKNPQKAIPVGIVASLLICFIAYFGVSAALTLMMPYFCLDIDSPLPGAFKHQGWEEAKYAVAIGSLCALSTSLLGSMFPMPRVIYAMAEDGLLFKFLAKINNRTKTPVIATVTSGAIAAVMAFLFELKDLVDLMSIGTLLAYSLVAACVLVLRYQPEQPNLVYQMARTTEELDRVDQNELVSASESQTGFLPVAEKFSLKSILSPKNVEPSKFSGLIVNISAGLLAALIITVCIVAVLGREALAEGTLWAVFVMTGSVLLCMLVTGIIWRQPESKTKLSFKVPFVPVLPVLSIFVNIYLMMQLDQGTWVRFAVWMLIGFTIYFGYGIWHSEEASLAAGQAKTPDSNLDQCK
Sequence of envelope protein of ecotropic Friend murine leukaemia virus molecular clone PVC-211 (P26803 35-676 limits assumed): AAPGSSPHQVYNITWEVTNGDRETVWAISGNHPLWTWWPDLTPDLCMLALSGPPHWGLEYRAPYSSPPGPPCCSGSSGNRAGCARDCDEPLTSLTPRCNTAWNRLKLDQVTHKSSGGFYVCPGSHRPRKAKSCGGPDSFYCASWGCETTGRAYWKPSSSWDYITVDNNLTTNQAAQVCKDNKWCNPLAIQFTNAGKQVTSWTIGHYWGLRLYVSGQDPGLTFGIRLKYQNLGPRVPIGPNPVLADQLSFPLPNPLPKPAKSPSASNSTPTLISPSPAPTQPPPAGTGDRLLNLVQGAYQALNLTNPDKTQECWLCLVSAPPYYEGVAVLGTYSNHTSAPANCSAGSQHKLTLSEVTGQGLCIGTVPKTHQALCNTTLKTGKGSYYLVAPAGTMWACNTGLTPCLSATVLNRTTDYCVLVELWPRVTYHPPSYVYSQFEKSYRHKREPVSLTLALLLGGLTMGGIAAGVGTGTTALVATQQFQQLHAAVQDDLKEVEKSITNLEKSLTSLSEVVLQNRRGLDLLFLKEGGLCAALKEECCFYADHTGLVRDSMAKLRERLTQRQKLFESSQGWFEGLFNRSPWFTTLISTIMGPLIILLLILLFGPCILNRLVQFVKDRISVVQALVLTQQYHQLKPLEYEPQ
Sequence of wild type envelope of ecotropic Moloney murine leukaemia virus (P03385 34-665 limits assumed): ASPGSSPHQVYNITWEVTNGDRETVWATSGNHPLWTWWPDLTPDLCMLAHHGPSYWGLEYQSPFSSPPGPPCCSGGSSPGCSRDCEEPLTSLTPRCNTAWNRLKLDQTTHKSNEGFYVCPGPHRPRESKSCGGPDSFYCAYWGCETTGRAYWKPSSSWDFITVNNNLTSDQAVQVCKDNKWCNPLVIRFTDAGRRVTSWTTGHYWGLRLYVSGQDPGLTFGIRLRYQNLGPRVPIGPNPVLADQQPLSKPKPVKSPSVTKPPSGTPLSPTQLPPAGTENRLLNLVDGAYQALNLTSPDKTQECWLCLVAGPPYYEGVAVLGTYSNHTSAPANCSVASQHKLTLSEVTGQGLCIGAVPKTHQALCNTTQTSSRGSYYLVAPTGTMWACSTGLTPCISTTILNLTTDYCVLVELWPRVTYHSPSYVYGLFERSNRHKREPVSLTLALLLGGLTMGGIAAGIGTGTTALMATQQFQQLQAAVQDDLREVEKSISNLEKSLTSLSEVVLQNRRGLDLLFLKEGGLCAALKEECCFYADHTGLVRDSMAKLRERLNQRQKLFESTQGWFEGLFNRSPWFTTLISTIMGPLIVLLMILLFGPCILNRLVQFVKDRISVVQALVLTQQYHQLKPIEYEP

## envelope protein of ecotropic Friend murine leukaemia virus molecular clone PVC-211 (from UniProt P26803 35-676)
[1]
  transduction efficiency (% GFP positive cells) in CHO-S Rec1-I-puro cells: 19%
[2]
  transduction efficiency (% GFP positive cells) in CHO T-REx Rec1-I-neo cells: 71.1%
  transduction efficiency (% GFP positive cells) in CHO-K1 Rec1-I-neo cells: 48.3%
  transduction efficiency (% GFP positive cells) in CHO-S Rec1-I-puro cells: 73%
[3]
  fold gene transfer efficiency, CHO-S Rec1-I-puro cells against CHO-S cells: 13 fold
  fold transduction efficiency in CHO-S Rec1-I-puro cells, MLV (PVC-211 Env) against MLV (wtEnv) vector particles: > 33 fold
  puromycin-resistant cell colonies counted in ten fields, CHO-S Rec1-I-neo cells transduced once: 41 colonies
  puromycin-resistant cell colonies counted in ten fields, CHO-S Rec1-I-neo cells transduced three times: 230 colonies
  transduction efficiency (% GFP positive cells) in BHK Rec1-I-puro cells: 31%
  transduction efficiency (% GFP positive cells) in CHO-S Rec1-I-puro cells: 15.5%
  transduction efficiency (% GFP positive cells) in HT1080 Rec1-I-neo cells: 16%

## wild type envelope of ecotropic Moloney murine leukaemia virus (from UniProt P03385 34-665)
[1]
  transduction efficiency (% GFP positive cells) in CHO-S Rec1-I-puro cells: 0.56%
[2]
  transduction efficiency (% GFP positive cells) in CHO T-REx Rec1-I-neo cells: 9.95%
  transduction efficiency (% GFP positive cells) in CHO-K1 Rec1-I-neo cells: 14.7%
  transduction efficiency (% GFP positive cells) in CHO-S Rec1-I-puro cells: 12.1%
[3]
  fold gene transfer efficiency, CHO-S Rec1-I-puro cells against parental CHO-S cells: 3 fold
  fold gene transfer, CHO-S Rec1-I-puro cells against CHO-S cells: 3.7 fold
  gene transfer efficiency (% GFP positive cells) in CHO-S Rec1-I-puro cells: 1.14%
  transduction efficiency (% GFP positive cells) in BHK Rec1-I-puro cells: 4.72%
  transduction efficiency (% GFP positive cells) in CHO-S Rec1-I-puro cells: 0.55%
  transduction efficiency (% GFP positive cells) in HT1080 Rec1-I-neo cells: 0.21%

Reference: patent US20140227786A1
